Measured values from patent publication US20020058798A1 (YEDA RESEARCH AND DEVELOPMENT, published 2002).
Where a chain is given by its changes, count along the chain named.

Legend:
[1] = target: T1, SNF1 (UniProt P06782 1-633, limits assumed); assay: yeast two-hybrid beta-galactosidase filter assay (SFY526); row = Gal4 DNA-binding-domain hybrid, column = activation-domain hybrid; + = strong color within 90 min; positive control
T1 sequence (looked up): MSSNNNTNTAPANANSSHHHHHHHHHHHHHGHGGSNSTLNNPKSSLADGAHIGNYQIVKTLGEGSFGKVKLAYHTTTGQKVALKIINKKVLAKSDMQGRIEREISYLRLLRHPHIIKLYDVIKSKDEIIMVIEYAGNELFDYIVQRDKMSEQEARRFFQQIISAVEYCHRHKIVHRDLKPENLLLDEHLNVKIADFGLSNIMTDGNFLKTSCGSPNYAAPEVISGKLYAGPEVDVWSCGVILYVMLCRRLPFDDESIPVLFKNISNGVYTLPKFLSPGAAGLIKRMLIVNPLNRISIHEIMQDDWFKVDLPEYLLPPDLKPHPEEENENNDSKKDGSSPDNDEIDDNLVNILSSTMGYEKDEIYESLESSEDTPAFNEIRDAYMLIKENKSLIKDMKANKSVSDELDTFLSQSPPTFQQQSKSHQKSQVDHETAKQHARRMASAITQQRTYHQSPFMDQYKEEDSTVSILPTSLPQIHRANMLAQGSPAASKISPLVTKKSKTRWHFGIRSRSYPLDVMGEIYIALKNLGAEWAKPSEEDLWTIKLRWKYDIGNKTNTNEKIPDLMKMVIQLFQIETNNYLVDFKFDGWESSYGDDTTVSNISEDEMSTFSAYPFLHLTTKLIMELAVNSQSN

[2] = target: T2, Mouse Fas-IC, full (mouse, UniProt P25446 187-327); assay: yeast two-hybrid beta-galactosidase filter assay (SFY526); row = Gal4 DNA-binding-domain hybrid, column = activation-domain hybrid; ++ = strong color within 30 min
T2 construct: domain: FAS-IC (intracellular domain); also called mFAS-IC
T2 sequence (looked up): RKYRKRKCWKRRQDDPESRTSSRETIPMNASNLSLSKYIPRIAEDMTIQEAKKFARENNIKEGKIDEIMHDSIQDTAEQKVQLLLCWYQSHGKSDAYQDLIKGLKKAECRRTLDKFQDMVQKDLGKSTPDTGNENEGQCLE

[3] = target: the molecule itself; assay: as above
[4] = target: T3, Mouse Fas-IC 197-306 (mouse, UniProt P25446 218-327); assay: as above
T3 construct: range 197-306
T3 sequence (looked up): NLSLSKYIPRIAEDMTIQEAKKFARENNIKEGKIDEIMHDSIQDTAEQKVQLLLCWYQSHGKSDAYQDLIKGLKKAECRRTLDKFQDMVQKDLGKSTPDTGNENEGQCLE

[5] = target: T4, GST-mFAS-IC I225A (GST fusion with FAS-IC containing an Ile to Ala replacement at position 225) (mouse, UniProt P25446 187-327); assay: GST pull-down: 35S-labeled FLAG-HF1 from HeLa extracts on GST fusion bound to glutathione beads, SDS-PAGE and autoradiography
T4 construct: also called GST-FAS-IC with a replacement at the lpr^cg mutation site; not shown: Glutathione S-transferase (GST)
T4 sequence (looked up): T2 sequence (looked up) with I60A
From the text: The [³⁵S] labeled proteins of the HeLa cells including the labeled FLAG-MORT1 fusion protein having been first extracted were subjected to interaction with the various GST and GST-FAS-IC proteins (bound to glutathione beads) and then to SDS-PAGE. As controls in all of the interaction experiments, extracts of HeLa cells transfected with luciferase were subjected to interactions with the GST and GST-FAS-IC fusion proteins and SDS-PAGE. FIGS. 1A and B are also described in Example 1.
Expression of HF1 (MORT-1) molecules fused at their N terminus with the FLAG octapeptide (FLAG-HF1) yielded in HeLa cells proteins of four distinct sizes—about 27, 28, 32, and 34 kD. […] Thus the in vitro interaction was evaluated by assessing, by autoradiography following SDS-PAGE, the binding of [³⁵S] metabolically labeled HF1, produced in transfected HeLa cells as a fusion with the FLAG octapeptide (FLAG-HF1), to GST, GST fusion with the human or mouse FAS-IC (GST-huFAS-IC, GST-mFAS-IC) or to GST fusion with FAS-IC containing an Ile to Ala replacement mutation at position 225.

B1: SNF4 (other, UniProt P12904 1-322, looked up)
chain: MKPTQDSQEKVSIEQQLAVESIRKFLNSKTSYDVLPVSYRLIVLDTSLLVKKSLNVLLQNSIVSAPLWDSKTSRFAGLLTTTDFINVIQYYFSNPDKFELVDKLQLDGLKDIERALGVDQLDTASIHPSRPLFEACLKMLESRSGRIPLIDQDEETHREIVVSVLTQYRILKFVALNCRETHFLKIPIGDLNIITQDNMKSCQMTTPVIDVIQMLTQGRVSSVPIIDENGYLINVYEAYDVLGLIKGGIYNDLSLSVGEALMRRSDDFEGVYTCTKNDKLSTIMDNIRKARVHRFFVVDDVGRLVGVLTLSDILKYILLGSN
[1]
  binding result: binds

B2: MORT-1 (full) (other)
chain: VNQAPECRFGGGILGPLGKRRDLARASEPRTEGARRAGPQPRPLADPAMDPFLVLLHSVSSSLSSSELTELKFLCLGRVVKRKLERVQSGLDLFSMLLEQNDLEPGHTELLRELLASLRRHDLLRRVDDFEAGAAAGAAPGEEDLCAAFNVICDNVGKDWRRLARQLKVSDTKIDSIEDRYPRNLTERVRESLRIWKNTEKENATVAHLVGALRSCQMNLVADLVQEVQQARDLQNRSGAMSPMSWNSDASTSEAS
notes: The Gal4 part is not written as a piece; Met 49 is a possible translation start; also called HF1; HF-1
[2]
  binding result: binds
[3]
  binding result: binds
[4]
  binding result: binds

B3: FLAG-MORT1 fusion protein (MORT-1 N-linked to the FLAG octapeptide) (other)
chain: B2 chain
modifications: metabolically labeled with [35S]methionine (and [35S]cysteine for the co-immunoprecipitations)
notes: also called FLAG-HF1; HF1-FLAG; not shown: FLAG octapeptide (Eastman Kodak)
[5]
  binding result: no binding
